Test results from US20180162952A1 (AbbVie / Abbott, published 2018).

T1: human PTK7, full length, expressed on transduced cells (human, UniProt Q13308 31-1070)
T1 sequence: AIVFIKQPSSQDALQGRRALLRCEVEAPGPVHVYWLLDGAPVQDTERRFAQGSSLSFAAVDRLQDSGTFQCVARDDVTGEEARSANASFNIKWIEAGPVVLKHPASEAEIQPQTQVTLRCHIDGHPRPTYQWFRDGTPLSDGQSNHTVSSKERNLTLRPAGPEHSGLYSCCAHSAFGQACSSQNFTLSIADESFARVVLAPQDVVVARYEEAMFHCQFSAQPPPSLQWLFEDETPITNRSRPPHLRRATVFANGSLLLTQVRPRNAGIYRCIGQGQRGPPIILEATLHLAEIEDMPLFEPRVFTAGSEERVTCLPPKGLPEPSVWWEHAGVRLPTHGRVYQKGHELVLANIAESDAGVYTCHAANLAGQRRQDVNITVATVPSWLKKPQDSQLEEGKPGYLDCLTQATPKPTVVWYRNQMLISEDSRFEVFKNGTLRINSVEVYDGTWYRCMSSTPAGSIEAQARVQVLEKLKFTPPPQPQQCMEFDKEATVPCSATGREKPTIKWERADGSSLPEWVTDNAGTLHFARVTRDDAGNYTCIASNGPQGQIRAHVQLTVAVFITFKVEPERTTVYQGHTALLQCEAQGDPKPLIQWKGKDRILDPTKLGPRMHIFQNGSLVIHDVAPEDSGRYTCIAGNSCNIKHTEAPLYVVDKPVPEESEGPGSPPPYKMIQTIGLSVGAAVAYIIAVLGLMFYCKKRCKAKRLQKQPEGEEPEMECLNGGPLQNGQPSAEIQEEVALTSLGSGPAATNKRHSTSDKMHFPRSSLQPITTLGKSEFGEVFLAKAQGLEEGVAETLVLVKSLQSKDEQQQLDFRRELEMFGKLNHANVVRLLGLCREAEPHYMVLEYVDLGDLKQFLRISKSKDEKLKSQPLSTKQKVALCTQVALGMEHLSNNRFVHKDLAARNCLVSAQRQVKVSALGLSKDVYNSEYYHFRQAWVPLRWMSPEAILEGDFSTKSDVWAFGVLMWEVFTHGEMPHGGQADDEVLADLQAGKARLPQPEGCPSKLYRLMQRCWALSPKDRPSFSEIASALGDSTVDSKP

T2: murine PTK7-His (murine, UniProt Q8BKG3 23-696, limits assumed)
T2 construct: also called mouse PTK7-His; mouse PTK7
T2 sequence (looked up): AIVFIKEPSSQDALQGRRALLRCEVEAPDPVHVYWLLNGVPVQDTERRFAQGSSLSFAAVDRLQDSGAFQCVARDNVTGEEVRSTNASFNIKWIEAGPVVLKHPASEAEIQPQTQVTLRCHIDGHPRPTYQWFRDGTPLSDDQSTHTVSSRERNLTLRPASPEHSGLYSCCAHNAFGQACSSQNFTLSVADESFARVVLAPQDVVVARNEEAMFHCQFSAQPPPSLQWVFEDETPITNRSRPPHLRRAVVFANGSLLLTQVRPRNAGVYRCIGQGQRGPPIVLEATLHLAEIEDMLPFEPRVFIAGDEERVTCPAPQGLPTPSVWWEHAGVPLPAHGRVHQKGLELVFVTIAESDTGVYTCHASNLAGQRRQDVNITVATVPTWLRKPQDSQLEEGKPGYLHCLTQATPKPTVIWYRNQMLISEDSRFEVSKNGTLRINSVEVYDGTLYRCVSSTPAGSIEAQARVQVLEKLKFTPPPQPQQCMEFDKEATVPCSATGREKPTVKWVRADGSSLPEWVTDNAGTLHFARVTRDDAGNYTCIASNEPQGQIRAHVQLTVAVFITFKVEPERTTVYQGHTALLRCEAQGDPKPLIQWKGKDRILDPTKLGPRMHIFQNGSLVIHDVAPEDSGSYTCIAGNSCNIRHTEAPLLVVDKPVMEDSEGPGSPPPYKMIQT

T3: hPTK7-His (soluble His-tagged human PTK7 extracellular domain) (human, UniProt Q13308 31-704)
T3 construct: also called PTK7-ECD-His; monomeric recombinant hPTK7-His (isoform a)
T3 sequence: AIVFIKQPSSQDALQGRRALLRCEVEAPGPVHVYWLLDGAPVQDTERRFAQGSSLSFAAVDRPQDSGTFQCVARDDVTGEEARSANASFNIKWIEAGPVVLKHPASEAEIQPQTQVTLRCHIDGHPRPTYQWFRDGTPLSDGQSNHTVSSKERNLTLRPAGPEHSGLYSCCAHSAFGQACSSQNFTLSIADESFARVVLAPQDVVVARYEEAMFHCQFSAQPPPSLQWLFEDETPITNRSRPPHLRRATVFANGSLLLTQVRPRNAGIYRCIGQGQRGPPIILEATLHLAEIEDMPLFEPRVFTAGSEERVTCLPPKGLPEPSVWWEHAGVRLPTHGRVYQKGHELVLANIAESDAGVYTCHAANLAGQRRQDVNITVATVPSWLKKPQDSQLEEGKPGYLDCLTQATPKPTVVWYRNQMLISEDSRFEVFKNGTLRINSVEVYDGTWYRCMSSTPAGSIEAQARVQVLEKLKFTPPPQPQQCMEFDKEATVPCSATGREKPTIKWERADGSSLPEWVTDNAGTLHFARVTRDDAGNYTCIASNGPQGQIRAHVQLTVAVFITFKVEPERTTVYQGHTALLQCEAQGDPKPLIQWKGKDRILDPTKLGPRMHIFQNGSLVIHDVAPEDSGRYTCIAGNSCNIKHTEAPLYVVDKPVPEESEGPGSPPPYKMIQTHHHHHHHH


How the values were obtained:
[1] = target: T1, human PTK7, full length, expressed on …; assay: cell-based or functional assay
murine PTK7-His = target: T2, murine PTK7-His; assay: ForteBio, concentration series of recombinant monomeric antigen
Method: Finally, cross-reactivity with regard to cynomolgus and murine PTK7 homologs were evaluated in with a ForteBio using a concentration series comprising recombinantly expressed, monomeric antigen.

[2] = target: T3, hPTK7-His (soluble His-tagged human …); assay: SPR, Biacore, antigen at 25, 12.5 and 6.25 nM, 1:1 Langmuir model; murine parent antibody
[3] = target: T1, human PTK7, full length, expressed on …; assay: cell-based or functional assay; remark: listed apart in the source
[4] = target: T3, hPTK7-His (soluble His-tagged human …); assay: SPR, Biacore, antigen at 25, 12.5 and 6.25 nM, 1:1 Langmuir model; humanized construct
[5] = target: T3, hPTK7-His (soluble His-tagged human …); assay: Biacore (superscript B); column Affinity (nM)
Method: (§1) Second, the affinities and kinetic constants kₒₙ and koff of the selected effectors were then measured using bio-layer interferometry analysis on a ForteBio RED (ForteBio, Inc.) with a standard antigen concentration series. Finally, the affinity of selected modulators was measured by surface plasmon resonance (Biacore System, GE Healthcare).

[6] = target: T3, hPTK7-His (soluble His-tagged human …); assay: Biacore (paragraph 369 names ForteBio for FIGS. 7C-7E)
Method: as §1

[7] = target: T3, hPTK7-His (soluble His-tagged human …); assay: ForteBio (superscript F); column Affinity (nM)
Method: Specifically, a number of these antibodies were characterized as to affinity, kinetics, binning, and cross reactivity with regard to cynomolgus and murine homologs (e.g., by ForteBio).
In accordance with the instant invention modulator affinity was measured in three ways to ensure accuracy. […] Second, the affinities and kinetic constants kₒₙ and koff of the selected effectors were then measured using bio-layer interferometry analysis on a ForteBio RED (ForteBio, Inc.) with a standard antigen concentration series.

| binding result (murine PTK7-His) | Kd [5] [nM] | Kd [6] [nM] | Binder | EC50, saporin (Fab-ZAP) cell killing, 293.PTK7 Cells [1] [nM] | reduction in viability of 293.PTK7 cells at 100 pM (Fab-ZAP human) [3] [%] | further results |
| --- | --- | --- | --- | --- | --- | --- |
| binds | – | – | SC6.23 (antibody, V domains shown, Murine monoclonal antibody, kappa light chain; also called murine SC6.23) VH: QVTLKESGPGILKPSQTLSLTCSFSGFSLSTSNMGVGWIRQPSGKGLEWLAHIWWDDDKYYNPSLKSQLTISKDTSRNQVFLKITSVDTEDTATYYCVRSNYGYAWFAYWGQGTLVTVSA VL: DIKMTQSPSSMYASLGERVTITCKASQDIYPYLNWFQQKPGKSPKTLIYRTNRLLDGVPSRFSGSGSGQDYSLTISSLDYEDMGIYYCLQYDEFPLTFGAGTKLELK | 0.0011 | – | Kd [2]: 2.3 nM |
| – | – | – | hSC6.23 (antibody, V domains shown, Humanized; also called humanized SC6.23) VH: QITLKESGPTLVKPTQTLTLTCTFSGFSLSTSNMGVGWIRQPPGKALEWLAHIWWDDDKYYSPSLKSRLTITKDTSKNQVVLTMTNMDPVDTATYYCVRSNYGYAWFAYWGQGTLVTVSS VL: DIQMTQSPSSLSASVGDRVTITCKASQDIYPYLNWFQQKPGKAPKTLIYRTNRLLDGVPSRFSGSGSGTDFTFTISSLQPEDIATYYCLQYDEFPLTFGAGTKLEIK | – | > 80 | Kd [4]: 3.9 nM |
| – | – | – | hSC6.24 (antibody, human IgG1, V domains shown) VH: QVQLVQSGPEVKKPGASVKVSCKASGYTFTDYAVHWVRQAPGKRLEWIGVISTYNDYTYNNQDFKGRVTMTRDTSASTAYMELSRLRSEDTAVYYCARGNSYFYALDYWGQGTSVTVSS VL: EIVLTQSPATLSLSPGERATLSCRASESVDSYGKSFMHWYQQKPGQAPRLLIYRASNLESGIPARFSGSGSGTDFTLTISSLEPEDFAVYYCQQSNEDPWTFGGGTKLEIKR | – | > 80 | – |
| binds | 0.5 | 0.5 | SC6.58 (antibody, V domains shown, Murine monoclonal antibody, kappa light chain) VH: EVKLLESGGGLVQPGGSLKLSCAASGFDFSRYWMSWVRQAPGKGLEWIGDLNPDSSAINYTPSLKDKFIISRDNAKNTLYLQMSKVRSEDTALYYCTLITTLVPYTMDFWGQGTSVTVSS VL: ETTVTQSPASLSMAIGEKVTIRCITNTDIDDDMNWYQQKPGEPPKLLISEGNGLRPGVPSRFSSSGYGTDFVFTIENMLSEDVADYYCLQSDNLPLTFGSGTKLEIK | 0.0104 | – | – |
| – | – | 2.1 | hSC6.41 (antibody, human IgG1, V domains shown, Humanized; also called humanized SC6.41) VH: QVQLVQSGAEVKKPGASVKVSCKASGYTFKDYYMHWVRQAPGQGLEWMGWIDPENGDTEYAPEFQGRVTMTRDTSTSTVYMELSSLRSEDTAVYYCNACNYGSAYGYWGQGTTLTVSS VL: DIVMTQSPLSLPVTPGEPASISCRSSKSLLHTKGDTYLYWFLQKPGQSPQLLIYRMSNRASGVPDRFSGSGSGTDFTLKISRVEAEDVGVYYCMQHLEYPFTFGQGTKLEIKR | – | – | – |
| binds | – | – | SC6.21 (antibody, V domains shown, Murine monoclonal antibody) VH: DVQLQESGPGLVKPSQTLSLTCSVPDYSITSDYHWHWIRQFPGNKLEWMGYISSRGSTNYNPSLKNRISITHDTSENQFFLKLTSVTTEDSATYYCAGLSQLALDYWGQGTTLTVSS VL: DIVMSQSPSSLAVSVGEKVTLSCKSSQSLLYSSTQNNYLAWYQQTPGQSPKLLIYWASTRESGVPDRFTGSGSGTDFTLTISSVKAEDLAVYYCQQYYSYPWTFGGGTKLEIK | 0.0306 | – | Kd [7]: < 0.1 nM |
| – | – | 1 | hSC6.58 (antibody, human IgG1, V domains shown, Humanized; also called humanized SC6.58) VH: EVQLVESGGGLVQPGGSLRLSCAASGFDFSRYWMSWVRQAPGKGLEWIGDLNPDSSAINYVDSVKGRFTISRDNAKNSLYLQMNSLRAEDTAVYYCTLITTLVPYTMDFWGQGTSVTVSS VL: ETTLTQSPAFMSATPGDKVNISCITNTDIDDDMNWYQQKPGEAAILLISEGNGLRPGIPPRFSGSGYGTDFTLTINNIESEDAAYYFCLQSDNLPLTFGSGTKLEIKR | – | > 80 | – |
| binds | 1 | 1 | SC6.41 (antibody, V domains shown, Murine monoclonal antibody, kappa light chain) VH: EVQLQQSGAESVRSGASVKLSCTASGLNIKDYYMHWVNLRPEQGLEWIGWIDPENGDTEYAPEFQGKATMTADTSSNTAYLQLSSLTSEDTAVYYCNACNYGSAYGYWGQGTTLTVSS VL: DIVLTQATPSVPVTPGESVSISCRSSKSLLHTKGDTYLYWFLQRPGQSPQLLIYRMSNLASGVPDRFSGSGSGTVFTLRISRVEAEDVGVYYCMQHLEYPFTFGSGTKLEIKR | 0.0023 | – | – |
| binds | 0.6 | 0.6 | SC6.24 (antibody, V domains shown, Murine monoclonal antibody, kappa light chain) VH: QVQLQQSGPEVVRPGVSVKISCKGSGYTFTDYAVHWVKLSHAKSLEWIGVISTYNDYTYNNQDFKGKATMTVDKSSSTAYMELARLTSEDSAIYYCARGNSYFYALDYWGQGTSVTVSS VL: DIVLTQSPASLAVSLGQRATISCRASESVDSYGKSFMHWYQQRPGQPPKLLIYRASNLESGIPARFSGSGSRTDFTLTINPVEADDVATYYCQQSNEDPWTFGGGTKLEIK | 0.0023 | – | – |
